# Measured values from US20240018228A1 (University of Texas, published 2024).
# B1: anti-CCL21 murine monoclonal antibody Clone #8 (C8) (antibody, V domains shown)
# VH: EVQLQQSGAEIVRSGASVRLSCTASGFNIKDFYLNWVKQRPEQGLDWIGWIDPENGDTEYAPKFQGKATMTADTSSNTIYLHLSSLTSEDTAVYYCNAFDYDYWGQGTTLTVSS
# VL: DIQMNQSPSSLSASLGDTVTITCHASQNINVWLSWYQQKPGNIPKLLIYKASNLHTGVPSRFSGSGSGTGFTLTISSLHPEDIATYYCHQGHSFPLTFGAGTKLELK
# notes: Mouse monoclonal from immunized BALB/C mice; also called anti-CCL21 C8
# Key:
# mouse CCL21 = target: T1, mouse CCL21 (mouse, UniProt P84444 24-133); experiment: slot blot of human and mouse CCL21 protein probed with the monoclonal antibody
# T1 construct: also called murine CCL21
# T1 sequence (looked up): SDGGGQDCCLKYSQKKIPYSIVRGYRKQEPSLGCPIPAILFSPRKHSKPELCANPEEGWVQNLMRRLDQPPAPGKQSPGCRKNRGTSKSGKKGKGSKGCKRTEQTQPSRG
# human chemokine CCL19 = target: T2, human chemokine CCL19 (human, UniProt Q99731 22-98); experiment: western blot of human CCL19 and human CCL21 probed with the monoclonal antibody
# T2 sequence (looked up): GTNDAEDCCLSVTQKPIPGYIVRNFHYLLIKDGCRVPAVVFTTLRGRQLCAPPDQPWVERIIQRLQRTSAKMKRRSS
# [1] = target: T3, human CCL21 (chemokine (C-C motif) ligand 21) (human, UniProt O00585 24-134); experiment: western blot of human CCL21 protein probed with hybridoma supernatant ('Supernatent BalbC (1:10)')
# T3 construct: The same entry is used for native CCL21 stained in tissue; also called hCCL21; rhCCL21
# T3 sequence (looked up): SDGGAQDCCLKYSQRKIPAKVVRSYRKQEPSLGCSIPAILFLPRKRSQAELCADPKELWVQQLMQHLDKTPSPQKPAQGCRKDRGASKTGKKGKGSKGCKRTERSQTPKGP
# CCL21 pep 1 = target: T4, CCL21 pep 1; experiment: slot blot; each lane holds only CCL21, pep 1 or pep 2 in the amount printed, probed with the monoclonal antibody (the legend calls it a competition)
# T4 construct: One of the two peptides behind r1 of the first reading
# T4 peptide: SLLILVLAFGIPR
# CCL21 pep 2 = target: T5, CCL21 pep 2; experiment: as above
# T5 construct: One of the two peptides behind r1 of the first reading
# T5 peptide: KYSQRKIPAKVVR
binder,measurement,setting,value
B1,binding result,mouse CCL21,no binding (tested: 1.0 µg)
same,binding result,human chemokine CCL19,no binding (tested: 100 ng)
same,binding result,[1],binds
same,binding result,CCL21 pep 1,binds
same,binding result,CCL21 pep 2,no binding (tested: 1.0 µg)
